Reference: patent US20220105179A1 (published 2022)

Molecular target: NEUFcε (Arthrobacter urefaciens;mouse, UniProt P06336 99-421)
Assay: BLI

B1: hFcεRIα (receptor)
chain: VPQKPKVSLNPPWNRIFKGENVTLTCNGNNFFEVSSTKWFHNGSLSEETNSSLNIVNAKFEDSGEYKCQHQQVNESEPVYLEVFSDWLLLQASAEVVMEGQPLFLRCHGWRNWDVYKVIYYKDGEALKYWYENHNISITNATVEDSGTYYCTGKVWQLDYESEPLNITVIKAPREKYWLQ
B1 was tested, and the Kd was < 1 pM.
